Biological target: Leishmania major actin (Leishmania major, UniProt P45520 2-376)
Experiment: ITC; ATP-actin

Chain of Leishmania major actin (P45520 2-376): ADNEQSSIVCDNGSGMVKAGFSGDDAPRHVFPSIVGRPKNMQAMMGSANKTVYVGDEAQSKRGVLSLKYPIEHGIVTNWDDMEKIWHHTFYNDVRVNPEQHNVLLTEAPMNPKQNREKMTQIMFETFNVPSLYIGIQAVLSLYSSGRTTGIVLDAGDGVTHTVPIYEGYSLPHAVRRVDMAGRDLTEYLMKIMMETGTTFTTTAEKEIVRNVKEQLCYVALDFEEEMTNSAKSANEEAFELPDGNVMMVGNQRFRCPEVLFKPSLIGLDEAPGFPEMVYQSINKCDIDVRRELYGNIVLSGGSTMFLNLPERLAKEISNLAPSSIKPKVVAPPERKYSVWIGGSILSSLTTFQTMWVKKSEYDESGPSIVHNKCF

B1: Leishmania major profilin, wild type (natural protein)
chain: SWQAYVDDSLIGSGNMHSAAIIGAADGSYWAYGGSYVPQPEEVQHIQKCLSDFSFVQSSGVNIYGVKFFGLQCGTDGDCKYIFFKKGAAGGCIYTTKQAFIVAVYGNPGDTSSLQQDLEKNTAHAVTVNPADCNTTVKRIADYLIKLGY
Kd: 71.8 nM

Reference: publication doi:10.1101/2023.01.06.522972 (2023)
